assay: soluble on expression in E. coli; label from the status in PepcDB or PDB records

Soluble on expression in E. coli, not soluble:
MRRVTEAAIPDNDGDEQPPVIPRYDPTSNFDAQRAQQQHPQSRPVYSTPAQMIRTTQPGGVKHNVILMKASDGTQKMVLKPGQFPPGTVISTGQRVVPYRQPTAVQQRQLYTATPGTRVVRIPNANGGAPRQQDHQVMRRVVQASGPRAMEYMDDQGTPPPGQQVRYVLQGGNSGTPNVNPPKVSSRGGPRGGLTMQMVQQQQQHNPVLDVMFSQVCRWDRQYGWSKTHVKRARQKNDSDKMHLRKFRMNQRELLITDHMERLKKEINKRRTRMENEAEQQCGLLTPWRKARARPHRAAKPKAEVKKEVINPADITLGGDTYDYVKEQKPTESIATNVSRRRRTSANLSKSEDDRDKPESQSTAPKSKERRTSEPPASHVAFHTPGSATPHDINLSIEHCTCQKIFDASKLYIQCELCARWYHGDCVGVAEQTILGLEHWSCEECIEEQERVKDQPALYCVCQKPYDDTKFYVGCDSCQGWFHPECVGTTRAEAEQAADYNCPACTREAEGYESEASDVSGSSRVSVQLTRADYTHVFELLELLLEHRMSTPFRNPVDLNEFPDYEKFIKKPMDLSTITKKVERTEYLYLSQFVNDVNQMFENAKTYNPKGNAVFKCAETMQEVFDKKLIDVREQMTARQQMLLLATAQQQDPMSSIRKRVQSESQRTVDSLDIDSDQLLPLDANLMRLYDF
MGSDKIHHHHHHMFSSEVIASFNELEMSIYNYICQHAEKVAYMRIRELADETHVSTATILRFCRKVDCDGFSEFKVKLKMHLEKEKKAPIKSSQHAIAEFFERAFRGDLEERISEAAALVADAENVIFIGIGSSGILAEYGARYFSALGKLSMYIKDFSYPIHSKLRQNSVTIALSVSGETHFTITQVNQLKQEGSKIISITNNKFSTIAKVADVNLSYYVSEEFFEKANITTQVPVVYILEAMARELYKLQG
MEIAKEIKDFLTTRRARITPDQVGLPTGGRRRVAGLRREVVAMLAGVSAEYYVQIERGGVSGVSDEVLYAIATALRLDDEETKHLFTLARAASTRPRRRIAPRARVEVPEPVQALVDAMITAPAVVQNGHLDIVAVNALGRALYADVFDRSDGVPNLARFIFLDRRAGETFPDWNHAADDAVAILRSEAARSPYSAAVTGLVGELATRSDEFRTRWATHDIKAHRRGTKRFHHPVVGDLTLRFEALEVASAAGLTLFGFTAEPGSPSEESLRLLSSWAASDRPEHQHS
MSLNAHLSAAWPVPVSVAPDALAEIQADFSREWLRLCDEAKRGVLGAPADKRFAGAAWLDDRQRLLMAHAYLLSARAMARLVEAAQVSEPMRNRLRFSVMQWVDAMSPANFLAFNPDAQRAIVESAGRTLQEGMANLLNDIQRGRISQTDETQFEIGRNVATTPGHVVFENSLMQLIQYAPQTAKVCERPLVIVPPNINKYYILDLQPENSFVRYAVEQGHTVFIISWRNPLAADTDGVDTATWSEYLDDAVLKALAVASDISGQPQVNALGFCVGGTMLASALALAQARGERPVASLTLLTSLLDFHDTGILKVFVDEAHALLRDHQYGQRGLMPARDLATTFSFLRPNELVWNYVVSNYLKGKTPPAFDLLFWNADSTNLPGPFFAWYFRNTYLENNLKVPGRARAAGVPLDLTRLDMPAYLYGSREDHIVPWPSAYASTQLLRGPMRFVLGASGHIAGVINPPAKQRRSYWVNESAGEGHHHHHH
MENWYPCIICGIARYGHDVIATPRLTSDARVNQWLNLIGKPALNRILATNKNPTLNTFICIEHFEPEELIEPKKRRMKPIKTTRREMAIYENYFRDHGYFETQKSDVNRKKSMKLTSISCSQCSESVERDGKFAKIDMVDHAKLHMELGDCRCEKHKKIERIDRIDGENSDFQCSECAFILNAELEAVKEKAEFCFPMFQFEKSKFSNSTLEPRMKPEYIESRPFWNSEEYDPVFLDSDVKFDLIEDFEPPEPEPEPEQVDTELVKLEPIDGDYEHMEGCFSGFEQEESEQPSTSSAPRKLVQQRDRLLENLYQSNRHPSMEDINSLLDFSGDQRSIEAIFGFFERRRNDDNEMCTGDDACSSLRRYLEMELHPHGPLLEPPEIRCRMIKMFEKHWAKYRYVFRDLHSYMFSDALGLPPKYIRQRFEHFKERKNQQQKKQQEEADRAFRERHKPPKPHKPKPKSQYSKFEDETMEKAYMRTVKMNPSSYESRDLLESISISLRMSLIKVHEWFNNRKFVDSIIDQTWRTFSVNDEKRLHSTFLQNPQPTDEQYCYLAKELRAPVKEVMNWFKLKQMNEEREEEALKFEYKLDALTQESIDLFTTIVDGTTVVSVAKRRLLALELDVPYETLGRWIFYYRNREEKSRKSPKLEDDDDPPPRLAKMPRLEMNEPDNEEDIKLEPLDS
MGSDKIHHHHHHMKMFKLEEQKLKDLGAIITTNEIKQQPELWLETYEIYKSNKEKLSRFIDTISNNHGQFRVIFTGAGTSAYIGNSILPYLKNKNDIRKYIFEAIPTTDIVSNPYDYLKKDIPTLLISFARSGNSPESLAALNLGNKIVDNFYHLAITCNPEGELAKMTKNDENNYLLLMPSKSNDEGFAMTGSFSCMMLSAMLIFDSLEDDVEKSYINAIIEMGRNVIDRKDEIHELINKDFDRVVYLGSGGLGGLTQEAQLKLLELTAGKISTVYDSPMGFRHGPKSFIDENTLVFEFVSNCLYTRKYDLDVLEEIKRDKIAKFTCAVSVENENNFSGTKFEFKEKYNKLPDVYLAMPYILFAQTIALFVSVKVGNKPDTPSATGTVNRVVKGVTIYEY
MGHHHHHHSHMMSPGLLLKPWWGGAQSEMGRNGMLEGCSVMSVGASRLGEGRVRPRAHSRRPVTRPRWRAAGPCTGTCQGGSHSRTLVLRLKAVSTTPTSANDLVQIKFRRDGGNRVVEALNLSEKRKDRKALCFSQSLHLQGEEIELTALSRSFQLRNVYFMISNI
MSEPKRLFFAIDLPDDARAQIIAWRAAHFASEDGRPVAAANLHLTLAFLGDVSSDKQRALAQLAGRIRQPGFTLHLDDAGQWLRSRVVWLGMRQPPRGLLQLANMLRAQAARSGCYQSPQPFHPHITLLRDASHTVAIPPPGFCWSFPVTSFALYASSYGQGRTRYAELQRWTLGE
MGSDKIHHHHHHMAKTNPGRFFEDYTVGQTLHHAVPRTVTNGERALYHALYPARHALYSSDAFAQSCGLPGSPIDDLAAFHVVFGKTVPDVSLNAVANLGYAEGRWLKPVYAGDTLRSVSEVIGLKQNSNGKTGVVYVRTRGLNQRDETVMEYVRWVMVRKRDLDAPAPEIVVPELKKALAPNDLVVPEGLDFTAYDFALAGEPHRWGDYAVGETIDHVDGVTVEEAEHMLATRLWQNTAKVHFDLTFRPDGRLIYGGHVISMARALSFNGLANAQIIVGLNGGAHANPCFAGDTIKAWTEVLDKAETAAPGVGALRLRLVATKGGAPFALHGEDGKYLPEVLLDLDYWVLMPK
MSAVLTAEDTLVLASTATPVEMELIMGWLGQQRARHPDSKFDILKLPPRNAPPAALTALVEQLEPGFASSPQSGEDRSIVPVRVIWLPPADRSRAGKVAALLPGRDPYHPSQRQQRRILRTDPRRARVVAGESAKVSELRQQWRDTTVAEHKRDFAQFVSRRALLALARAEYRILGPQYKSPRLVKPEMLASARFRAGLDRIPGATVEDAGKMLDELSTGWSQVSVDLVSVLGRLASRGFDPEFDYDEYQVAAMRAALEAHPAVLLFSHRSYIDGVVVPVAMQDNRLPPVHMFGGINLSFGLMGPLMRRSGMIFIRRNIGNDPLYKYVLKEYVGYVVEKRFNLSWSIEGTRSRTGKMLPPKLGLMSYVADAYLDGRSDDILLQGVSICFDQLHEITEYAAYARGAEKTPEGLRWLYNFIKAQGERNFGKIYVRFPEAVSMRQYLGAPHGELTQDPAAKRLALQKMSFEVAWRILQATPVTATGLVSALLLTTRGTALTLDQLHHTLQDSLDYLERKQSPVSTSALRLRSREGVRAAADALSNGHPVTRVDSGREPVWYIAPDDEHAAAFYRSSVIHAFLETSIVELALAHAKHAEGDRVAAFWAQAMRLRDLLKFDFYFADSTAFRANIAQEMAWHQDWEDHLGVGGNEIDAMLYAKRPLMSDAMLRVFFEAYEIVADVLRDAPPDIGPEELTELALGLGRQFVAQGRVRSSEPVSTLLFATARQVAVDQELIAPAADLAERRVAFRRELRNILRDFDYVEQIARNQFVAREFKARQGRDRILEHHHHHH

Soluble on expression in E. coli, soluble:
MFRSSFCKNLENATSHLRLEPDWPSILLICDEINQKDVTPKNAFAAIKKKMNSPNPHSSCYSLLVLESIVKNCGAPVHEEVFTKENCEMFSSFLESTPHENVRQKMLELVQTWAYAFRSSDKYQAIKDTMTILKAKGHTFPELREADAMFTADTAPNWADGRVCHRCRVEFTFTNRKHHCRNCGQVFCGQCTAKQCPLPKYGIEKEVRVCDGCFAALQRG
PMVTAATSLRRALENPDSFIVAPGVYDGLSARVALSAGFDALYMTGAGTAASVHGQADLGICTLNDMRANAEMISNISPSTPVIADADTGYGGPIMVARTTEQYSRSGVAAFHIEDQVQTKRCGHLAGKILVDTDTYVTRIRAAVQARQRIGSDIVVIARTDSLQTHGYEESVARLRAARDAGADVGFLEGITSREMARQVIQDLAGWPLLLNMVEHGATPSISAAEAKEMGFRIIIFPFAALGPAVAAMREAMEKLKRDGIPGLDKEMTPQMLFRVCGLDESMKVDAQAGGAAFDGGVDLK
SELPVRCRNISGTLYKNRLGSGGRGRCIKQGENWYSPTEFEAMAGRASSKDWKRSIRYAGRPLQCLIQDGILNP
MNGGEKLESIPIDLIIEIHSRLPAESVARFRCVSKLWGSMFRRPYFTELFLTRSRARPRLLFVLQHNRKWSFSVFSSPQNQNIYEKPSFVVADFHMKFSVSTFPDFHSCSGLIHFSMMKGAYTVPVVCNPRTGQYAVLPKLTRTRYENSYSFVGYDPIEKQIKVLFMSDPDSGDDHRILTLGTTEKMLGRKIECSLTHNILSNEGVCINGVLYYKASRIVESSSDDDTSDDDDDDHERSDVIVCFDFRCEKFEFIVICFYGQLINSVQLSLKQKSHQKLDLII
MAKEKKRGFFSWLGFGQKEQTPEKETEVQNEQPVVEEIVQAQEPVKASEQAVEEQPQAHTEAEAETFAADVVEVTEQVAESEKAQPEAEVVAQPEPVVEETPEPVAIEREELPLPEDVNAEAVSPEEWQAEAETVEIVEAAEEEAAKEEITDEELETALAAEAAEEAVMVVPPAEEEQPVEEIAQEQEKPTKEGFFARLKRSLLKTKENLGSGFISLFRGKKIDDDLFEELEEQLLIADVGVETTRKIITNLTEGASRKQLRDAEALYGLLKEEMGEILAKVDEPLNVEGKAPFVILMVGVNGVGKTTTIGKLARQFEQQGKSVMLAAGDTFRAAAVEQLQVWGQRNNIPVIAQHTGADSASVIFDAIQAAKARNIDVLIADTAGRLQNKSHLMEELKKIVRVMKKLDVEAPHEVMLTIDASTGQNAVSQAKLFHEAVGLTGITLTKLDGTAKGGVIFSVADQFGIPIRYIGVGERIEDLRPFKADDFIEALFARED
MAHHHHHHMRCCSTALRTGRRGPGGWTEPRLQQATSTDFMRDSTGTGGDNNNNNNNDGGKGPSSALKRHFNVNDFSMIERQQMTLTKLMRITMDATFKPKDPDSRTYGGDGATQRAALREELKTMDSRIVPFAHEEILNDYLKNIVELSGPSGQRYDREMLRGRLVGLLFFTETDRSLAFMRLLREFHQRHRRDFVVVAISLGGKEMMDITRQHGFYHCSHRDGATWVQRDTGLMVRPWTPLPRLIVVNGTSGEEITSSGVTAVKAHPNTCFEKWKNGEEGCDWWDYIKTFYM
SRVQILKDFVKQHFPATPLLDYALEVEKITTSKKPNLILNVDGFIGVAFVDMLRNCGSFTREEADEYVDIGALNGIFVLGRSMGFIGHYLDQKRLKQGLYRHPWDDISYVLPEHMSM
SLEGWGRGLAMFYIRRVETPEGLVMVLVTDEDVMERAVYDEERGVRIIVSRSFYGGSLGTEADAIKTIEKADIIVLTGEKSVSIGVRMGLVNPDSVLEVKGIKQVQVFKFSY

Source: the DeepSol protein solubility set
